B1: Acid sphingomyelinase-like phosphodiesterase 3b (Homo sapiens), Q92485-2 (parent)
chain: MRLLAWLIFLANWGGARAEPGKFWHIADLHLDPDYKVSKDPFQVCPSAGSQPVPDAGPWGDYLCDSPWALINSSIYAMKEIEPEPDFILWTGDDTPHVPDEKLGEAAVLEIVERLTKLIREVFPDTKVYAALGNHDFHPKNQFPAGSNNIYNQIAELWKPWLSNESIALFKKGAFYCEKLPGPSGAGRIVVLNTNLYYTSNALTADMADPGQQFQWLEDVLTDASKAGDMVYIVGHVPPGFFEKTQNKAWFREGFNEKYLKVVRKHHRVIAGQFFGHHHTDSFRMLYDDAGVPISAMFITPGVTPWKTTLPGVVNGANNPAIRVFEYDRATLSLKVRSPAEARGGGWEGLKCITTFPHSQLIHLPLTTEPQEG

Variants of: B1
Conditions: with INSR

Variant | effect of a mutation on the interaction
MRLLAWLIFLANWGGARAEPGKFWHIADLHLDPDYKVSKDPFQVCPSAGSQPVPDAGPWGDYLCDSPWALINSSIYAMKEIEPEPDFILWTGDDTPHVPDEKLGEAAVLEIVERLTKLIREVFPDTKVYAALGNADFHPKNQFPAGSNNIYNQIAELWKPWLSNESIALFKKGAFYCEKLPGPSGAGRIVVLNTNLYYTSNALTADMADPGQQFQWLEDVLTDASKAGDMVYIVGHVPPGFFEKTQNKAWFREGFNEKYLKVVRKHHRVIAGQFFGHHHTDSFRMLYDDAGVPISAMFITPGVTPWKTTLPGVVNGANNPAIRVFEYDRATLSLKVRSPAEARGGGWEGLKCITTFPHSQLIHLPLTTEPQEG [H135A] | with no effect

Variants of: B1
Conditions: with INSR
Remark: another data set of the same source

Variant | effect of a mutation on the interaction
MRLLAWLIFLANWGGARAEPGKFWHIADLHLDPDYKVSKDPFQVCPSAGSQPVPDAGPWGDYLCDSPWALINSSIYAMKEIEPEPDFILWTGDDTPHVPDEKLGEAAVLEIVERLTKLIREVFPDTKVYAALGNADFHPKNQFPAGSNNIYNQIAELWKPWLSNESIALFKKGAFYCEKLPGPSGAGRIVVLNTNLYYTSNALTADMADPGQQFQWLEDVLTDASKAGDMVYIVGHVPPGFFEKTQNKAWFREGFNEKYLKVVRKHHRVIAGQFFGHHHTDSFRMLYDDAGVPISAMFITPGVTPWKTTLPGVVNGANNPAIRVFEYDRATLSLKVRSPAEARGGGWEGLKCITTFPHSQLIHLPLTTEPQEG [H135A] | with no effect

Variants of: B1
Conditions: with CAV1, Q03135-1
Chain of CAV1, Q03135-1 (Q03135 whole entry): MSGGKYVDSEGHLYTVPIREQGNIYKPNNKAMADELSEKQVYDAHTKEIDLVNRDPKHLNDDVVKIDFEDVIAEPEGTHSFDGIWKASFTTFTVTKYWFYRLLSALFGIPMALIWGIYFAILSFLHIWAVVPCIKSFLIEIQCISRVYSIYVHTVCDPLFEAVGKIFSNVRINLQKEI

Variant | effect of a mutation on the interaction
MRLLAWLIFLANWGGARAEPGKFWHIADLHLDPDYKVSKDPFQVCPSAGSQPVPDAGPWGDYLCDSPWALINSSIYAMKEIEPEPDFILWTGDDTPHVPDEKLGEAAVLEIVERLTKLIREVFPDTKVYAALGNADFHPKNQFPAGSNNIYNQIAELWKPWLSNESIALFKKGAFYCEKLPGPSGAGRIVVLNTNLYYTSNALTADMADPGQQFQWLEDVLTDASKAGDMVYIVGHVPPGFFEKTQNKAWFREGFNEKYLKVVRKHHRVIAGQFFGHHHTDSFRMLYDDAGVPISAMFITPGVTPWKTTLPGVVNGANNPAIRVFEYDRATLSLKVRSPAEARGGGWEGLKCITTFPHSQLIHLPLTTEPQEG [H135A] | with no effect

— IntAct's records for PubMed 31217420
